{
  "source": "patent US5156956A",
  "about": "“Transgultaminase” (Ajinomoto Co., Inc., priority 1987, dated 1992)",
  "molecules": {"B1": {"name": "BTGase: microorganism-derived transglutaminase; in Examples 4-11 the freeze dried product prepared in Example 1 (S. mobaraense, i.e. BTG-1) (protein, UniProt P81453 77-407, looked up)", "Protein-glutamine …": "DSDDRVTPPAEPLDRMPDPYRPSYGRAETVVNNYIRKWQQVYSHRDGRKQQMTEEQREWLSYGCVGVTWVNSGQYPTNRLAFASFDEDRFKNELKNGRPRSGETRAEFEGRVAKESFDEEKGFQRAREVASVMNRALENAHDESAYLDNLKKELANGNDALRNEDARSPFYSALRNTPSFKERNGGNHDPSRMKAVIYSKHFWSGQDRSSSADKRKYGDPDAFRPAPGTGLVDMSRDRNIPRSPTSPGEGFVNFDYGWFGAQTEADADKTVWTHGNHYHAPNGSLGAMHVYESKFRNWSEGYSDFDRGAYVITFIPKSWNTAPDKVKQGWP"}},
  "key": {"[1]": {"tested_on": "Acid-precipitated soybean protein", "experiment": "Gelation, test tube inversion method", "assay_type": "biochemical", "design": "key: .smallcircle.: gelled; Δ: weakly gelled; x: remained as solution", "details": "BTGase 0.02 U/mg protein, 55° C., 1 h, MTGase 0.1 U/mg, 37° C.", "description": "(§1) 1) The BTGase (freeze dried product, specific activity of 2.50 Units/mg protein) prepared in Example 1 was added to 5 ml of each of 5 and 10 wt. % solutions or suspensions of protein foodstuffs prepared by the method described in Example 1 of Published Unexamined Japanese Patent Application No. 149645/83 or purchased, namely, (1) αsi -casein, (2) Na-caseinate, (3) soybean 11S globulin, (4) soybean 7S globulin, (5) soybean protein isolate \"Ajipron S-2\" (manufactured by Ajinomoto Co., Inc.), (6) water-extracted soybean protein, (7) acid-precipitated soybean protein, (8) soybean protein particles, (9) soybean protein micelles and (10) gelatin in 0.02 U per 1 mg of protein followed by shake incubation at 55° C. for an hour. After allowing to stand at room temperature, test tubes with samples were turned upside down, whereby gelation was determined by noting whether the samples drifted down or not.\n(§2) For purposes of comparison, the results of gelation ability test with MTGase are also shown. The amount of MTGase added was 0.1 U per 1 mg of substrate protein."}, "[2]": {"tested_on": "Ajipron S-2 (soybean protein isolate)", "experiment": "Gelation, test tube inversion method", "assay_type": "biochemical", "design": "key: .smallcircle.: gelled; Δ: weakly gelled; x: remained as solution", "details": "BTGase 0.02 U/mg protein, 55° C., 1 h, MTGase 0.1 U/mg, 37° C.", "description": "as §1, §2"}, "Gelatin [3]": {"tested_on": "Gelatin", "experiment": "Gelation, test tube inversion method", "assay_type": "biochemical", "design": "key: .smallcircle.: gelled; Δ: weakly gelled; x: remained as solution", "details": "BTGase 0.02 U/mg protein, 55° C., 1 h, MTGase 0.1 U/mg, 37° C.", "description": "as §1, §2"}, "Na-Caseinate": {"tested_on": "Na-Caseinate", "experiment": "Gelation, test tube inversion method", "assay_type": "biochemical", "design": "key: .smallcircle.: gelled; Δ: weakly gelled; x: remained as solution", "details": "BTGase 0.02 U/mg protein, 55° C., 1 h, MTGase 0.1 U/mg, 37° C.", "description": "as §1, §2"}, "Soybean 11S globulin": {"tested_on": "Soybean 11S globulin", "experiment": "Gelation, test tube inversion method", "assay_type": "biochemical", "design": "key: .smallcircle.: gelled; Δ: weakly gelled; x: remained as solution", "details": "BTGase 0.02 U/mg protein, 55° C., 1 h, MTGase 0.1 U/mg, 37° C.", "description": "as §1, §2"}, "Soybean 7S globulin": {"tested_on": "Soybean 7S globulin", "experiment": "Gelation, test tube inversion method", "assay_type": "biochemical", "design": "key: .smallcircle.: gelled; Δ: weakly gelled; x: remained as solution", "details": "BTGase 0.02 U/mg protein, 55° C., 1 h, MTGase 0.1 U/mg, 37° C.", "description": "as §1, §2"}, "Soybean protein micells": {"tested_on": "Soybean protein micells", "experiment": "Gelation, test tube inversion method", "assay_type": "biochemical", "design": "key: .smallcircle.: gelled; Δ: weakly gelled; x: remained as solution", "details": "BTGase 0.02 U/mg protein, 55° C., 1 h, MTGase 0.1 U/mg, 37° C.", "description": "as §1, §2"}, "[4]": {"tested_on": "Soybean protein particles", "experiment": "Gelation, test tube inversion method", "assay_type": "biochemical", "design": "key: .smallcircle.: gelled; Δ: weakly gelled; x: remained as solution", "details": "BTGase 0.02 U/mg protein, 55° C., 1 h, MTGase 0.1 U/mg, 37° C.", "description": "as §1, §2"}, "[5]": {"tested_on": "Water-extracted soybean protein", "experiment": "Gelation, test tube inversion method", "assay_type": "biochemical", "design": "key: .smallcircle.: gelled; Δ: weakly gelled; x: remained as solution", "details": "BTGase 0.02 U/mg protein, 55° C., 1 h, MTGase 0.1 U/mg, 37° C.", "description": "as §1, §2"}, "αS1 -Casein": {"tested_on": "αS1 -Casein", "experiment": "Gelation, test tube inversion method", "assay_type": "biochemical", "design": "key: .smallcircle.: gelled; Δ: weakly gelled; x: remained as solution", "details": "BTGase 0.02 U/mg protein, 55° C., 1 h, MTGase 0.1 U/mg, 37° C.", "description": "as §1, §2"}, "Rabbit myosin": {"tested_on": "Rabbit myosin", "experiment": "Gelation, test tube inversion method", "assay_type": "biochemical", "design": "key: .smallcircle.: gelled; Δ: weakly gelled; x: remained as solution", "details": "BTGase 0.02 U/mg protein, 55° C., 1 h, MTGase 0.1 U/mg, 37° C.", "description": "2) Rabbit myosin was prepared as follows for use as a substrate for BTGase.\nThe concentration of protein was 1.5%. BTGase was added to the myosin under the same conditions as under 1) above to examine gelation ability.\nas §2"}, "Prawn myosin": {"tested_on": "Prawn myosin", "experiment": "Gelation, test tube inversion method", "assay_type": "biochemical", "design": "key: .smallcircle.: gelled; Δ: weakly gelled; x: remained as solution", "details": "5 ml, 3.6 units of BTGase, 35° C., 35 minutes at maximum, MTGase 0.1 U/mg, 37° C., 1 h", "description": "3) Prawn myosin was prepared as follows for use as a substrate for BTGase.\nThe shell of a fresh (live) prawn (body length of about 5 cm) was peeled off and the prawn flection muscle was taken out. After mincing, the mince was washed with ice water and homogenized under cooling in the presence of 0.1 mM DTT and 0.1 mM PMSF. By centrifugation, actomyosin was extracted and separated therefrom. By further ultracentrifugation at 10^5 ×g for 60 minutes, actin was removed to give a myosin-rich fraction. Further dilution precipitation and ultracentrifugation were repeated to give purified prawn myosin. […] By immersing in a water bath at 35° C., the reaction was initiated and carried out for 35 minutes at maximum.\nas §2"}, "Gelatin [6]": {"tested_on": "Gelatin", "experiment": "Gelatin gel after heating in boiling water bath", "assay_type": "biochemical", "design": "key: x: complete solution; .smallcircle.: gelled condition (not dissolved even after heating)", "details": "0.02 U/mg protein, 37° C. 1 h, then boiling water bath 10 minutes", "description": "0.1M Tris-HCl buffer (pH 7.6) was added to gelatin (manufactured by Nitta Gelatin Co., Ltd.) so as to form 5.10 wt. % solution. Gelatin was completely dissolved at 60° C. for 3 minutes and the same BTGase as that of Example 4 was added to the solution in 0.02 U/mg protein. After thoroughly mixing, the mixture was reacted at 37° C. for an hour and then heated in a boiling water bath for 10 minutes. Immediately thereafter, the condition was observed.\nFor purposes of comparison, the system which was identically treated except for adding no BTGase was used as control."}, "[7]": {"tested_on": "oxhide-derived atelo-collagen", "experiment": "Gelation of atelo-collagen solutions", "assay_type": "biochemical, ox", "design": "key: .smallcircle.: gelled; Δ: weakly gelled; x: remained as solution", "details": "0.05 U/mg protein; for Gelation, Immediately After Completion of Incubation: 55° C. 60 minutes; for Gelation, After Heating at 100° C.: 100° C. 15 minutes; for Gelation, After Allowing to Stand for 60 Minutes: room temperature", "description": "A necessary amount of oxhide-derived atelo-collagen powders (manufactured by Kouken K.K.) were taken in a test tube and 2 ml of 0.1M Tris-HCl buffer (pH 7.5) was added thereto. After maintaining in a water bath at 55° C. for 15 minutes, the mixture was stirred to prepare 3 to 10% atelo-collagen solutions. Before the solutions of high concentration were gelled due to cooling, BTGase was added thereto in 0.05 U/mg protein followed by incubation at 55° C. for 60 minutes. As a control for the all samples, 10% atelo-collagen solution with no BTGase added was also incubated likewise. Immediately after completion of the incubation, the system was allowed to stand at room temperature for 60 minutes. Then the system was further kept in a water bath of 100° C. for 15 minutes and then the condition in the test tube was observed."}},
  "data": [
    {"molecule": "B1", "values": [
      {"measurement": "Gelation, Acid-precipitated soybean protein 5%", "setting": "[1]; 5%", "value": ".smallcircle."},
      {"measurement": "Gelation, Acid-precipitated soybean protein 10%", "setting": "[1]; 10%", "value": ".smallcircle."},
      {"measurement": "Gelation, Ajipron S-2 5%", "setting": "[2]; 5%", "value": ".smallcircle."},
      {"measurement": "Gelation, Ajipron S-2 10%", "setting": "[2]; 10%", "value": ".smallcircle."},
      {"measurement": "Gelation, Gelatin 5%", "setting": "Gelatin [3]; 5%", "value": ".smallcircle."},
      {"measurement": "Gelation, Gelatin 10%", "setting": "Gelatin [3]; 10%", "value": ".smallcircle."},
      {"measurement": "Gelation, Na-Caseinate 5%", "setting": "Na-Caseinate; 5%", "value": ".smallcircle."},
      {"measurement": "Gelation, Na-Caseinate 10%", "setting": "Na-Caseinate; 10%", "value": ".smallcircle."},
      {"measurement": "Gelation, Soybean 11S globulin 5%", "setting": "Soybean 11S globulin; 5%", "value": ".smallcircle."},
      {"measurement": "Gelation, Soybean 11S globulin 10%", "setting": "Soybean 11S globulin; 10%", "value": ".smallcircle."},
      {"measurement": "Gelation, Soybean 7S globulin 5%", "setting": "Soybean 7S globulin; 5%", "value": ".smallcircle."},
      {"measurement": "Gelation, Soybean 7S globulin 10%", "setting": "Soybean 7S globulin; 10%", "value": ".smallcircle."},
      {"measurement": "Gelation, Soybean protein micells 5%", "setting": "Soybean protein micells; 5%", "value": "Δ"},
      {"measurement": "Gelation, Soybean protein micells 10%", "setting": "Soybean protein micells; 10%", "value": ".smallcircle."},
      {"measurement": "Gelation, Soybean protein particles 5%", "setting": "[4]; 5%", "value": ".smallcircle."},
      {"measurement": "Gelation, Soybean protein particles 10%", "setting": "[4]; 10%", "value": ".smallcircle."},
      {"measurement": "Gelation, Water-extracted soybean protein 5%", "setting": "[5]; 5%", "value": ".smallcircle."},
      {"measurement": "Gelation, Water-extracted soybean protein 10%", "setting": "[5]; 10%", "value": ".smallcircle."},
      {"measurement": "Gelation, αS1 -Casein 5%", "setting": "αS1 -Casein; 5%", "value": ".smallcircle."},
      {"measurement": "Gelation, αS1 -Casein 10%", "setting": "αS1 -Casein; 10%", "value": ".smallcircle."},
      {"measurement": "Gelation, Rabbit myosin 1.5%", "setting": "Rabbit myosin", "value": ".smallcircle."},
      {"measurement": "Gelation, Prawn myosin 3.6%", "setting": "Prawn myosin", "value": ".smallcircle."},
      {"measurement": "Condition of 5% Gelatin, +BTG", "setting": "Gelatin [6]", "value": ".smallcircle."},
      {"measurement": "Condition of 10% Gelatin, +BTG", "setting": "Gelatin [6]", "value": ".smallcircle."},
      {"measurement": "Gelation, Immediately After Completion of Incubation", "setting": "[7]; 3% Solution", "value": ".smallcircle."},
      {"measurement": "Gelation, After Heating at 100° C.", "setting": "[7]; 3% Solution", "value": ".smallcircle."},
      {"measurement": "Gelation, After Allowing to Stand for 60 Minutes", "setting": "[7]; 3% Solution", "value": ".smallcircle."},
      {"measurement": "Gelation, Immediately After Completion of Incubation", "setting": "[7]; 5% Solution", "value": ".smallcircle."},
      {"measurement": "Gelation, After Heating at 100° C.", "setting": "[7]; 5% Solution", "value": ".smallcircle."},
      {"measurement": "Gelation, After Allowing to Stand for 60 Minutes", "setting": "[7]; 5% Solution", "value": ".smallcircle."},
      {"measurement": "Gelation, Immediately After Completion of Incubation", "setting": "[7]; 10% Solution", "value": ".smallcircle."},
      {"measurement": "Gelation, After Heating at 100° C.", "setting": "[7]; 10% Solution", "value": ".smallcircle."},
      {"measurement": "Gelation, After Allowing to Stand for 60 Minutes", "setting": "[7]; 10% Solution", "value": ".smallcircle."}
    ]}
  ]
}
